Measured values published in the supplement of paper PMC9170038.

Test system: MS2 coat protein
Experiment: apparent KD of MS2 coat protein; designed switch direction (-1 OFF switch, 1 ON switch): -1; higher = weaker reporter binding
Outline: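 Apparent KD, taken as the median over clusters for each design, was obtained by curve-fitting normalised cluster fluorescence. Designed RNA switches had been transcribed on Illumina chips by stalled E. coli RNA polymerase and titrated with SNAP-549-labelled MS2 coat protein, doubling from 0.7 or 1.5 nM to 3 µM.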

[1] = Eterna round: R95, input ligand: FMN 200 uM
[2] = Eterna round: R95, input ligand: microRNA oligo, concentration not stated
[3] = Eterna round: R95, input ligand: none
[4] = input ligand: microRNA oligo, concentration not stated

| Sequence | apparent KD of MS2 coat protein (input ligand: FMN 200 uM) [nM] | apparent KD of MS2 coat protein (input ligand: none) [nM] | apparent KD of MS2 coat protein [1] [nM] | apparent KD of MS2 coat protein [2] [nM] | apparent KD of MS2 coat protein [3] [nM] | apparent KD of MS2 coat protein [4] [nM] |
| --- | --- | --- | --- | --- | --- | --- |
| CCGGCUUAGGAGGAUAUAGGAGUCGAAAGACACCUAGAAGGCCUAACAUGAGGAUCACCCAUGUGUCCUACCGG [Mod of Eli 6 - Jieux - Exclusion 6] (Eterna round: R97, puzzle: Exclusion 6) | 78.4 | 24 |  |  |  |  |
| CCGUCACAUGAGGAUCACCCAUGUCAGGAUAUCUCAGUGCAUCCACACGGACGCAUCAAGAGAAGGGACAAAAC [Vinxlusion 6 - Jieux - Exclusion 1] (Eterna round: R97, puzzle: Exclusion 1) | 47.9 | 34.8 |  |  |  |  |
| CCGUGUUUAGGAUAUGCUAUGGAAGUGUUAAUAUUCAUUAGACAUGAGGAUCACCCAUGUAGAAGGAGGCCGCG [Eternabot (L1) Solution 96] (Eterna round: R97, puzzle: Exclusion 2) | 340 | 142 |  |  |  |  |
| CCGUUAUGAGGAUAUCGCUUGAAAGACAUGAGGAUCACCCAUGUGGGCGCGUCCUCAUGGCGAGAAGGCAUUACGA [Enmaatama] (puzzle: Exclusion 5) |  |  | 9.07 | 13.1 | 12.6 |  |
| CCUACUCAGCGAGGAUAUGUAACGGUGACUAGGGACGUCUACAUGAGGAUCACCCAUGUGACUAAGCAGAAGGCGCAGAGCCCA [Learve] (Eterna round: R96, puzzle: Exclusion NG 2) | 54.2 | 47.7 |  |  |  | 33.1 |
| CCUCAGUAAGGAUAUCAGCUUAUGGAGUUGGUAAUGAGAGCUGAGAAGGUACAUGAGGAUCACCCAUGUUAGUU [JL Zatite mod 2] (puzzle: Exclusion 4) |  |  |  | 25.4 |  |  |
| CCUCAGUCACAGGAUAUGCUCAUCUAAUGAUGAGCAGAAGGGUGAACAUGAGGAUCACCCAUGUUUACGAGGGU [Omei Ex6 E7] (Eterna round: R97, puzzle: Exclusion 6) | 407 | 555 |  |  |  |  |
| CCUCCCUGAGGAUAUCCACCCUCAUACAUGAGGAUCACCCAUGUUCAUCCGUGGGUACCCGGAGAAGGCAGAUUUC [Megrez-a] (Eterna round: R97, puzzle: Exclusion 5) | 41.9 | 33.1 |  |  |  |  |
| CCUCGACAUGAGGAUCACCCAUGUAAGGAUAUGUUGACGAGCCUGAAAAGGCUGGUCAACAGAAGGUAUAUGUA [Exclusion 1 (Mod 1b.1 solution 16 by Eternabot)] (Eterna round: R97, puzzle: Exclusion 1) | 112 | 28.4 |  |  |  |  |
| CCUCGUAACUAGGAUAUCCGAAAUAAGCGAGGAGGAGAAGGAGUUACAUGAGGAUCACCCAUGUGAUAUAAAGA [Orisxe] (puzzle: Exclusion 6) |  |  | 46.9 | 15.5 | 17.4 |  |
| CCUCUACAUGAGGAUCACCCAUGUGAGGAUAUCUCGGAGCAGCCACUUAAAGCACUCCAGAGAAGGCACGUGUA [Mavemain] (puzzle: Exclusion 1) |  |  |  | 15.5 |  |  |
| CCUGCACAUGAGGAUCACCCAUGUCAGGAUAUCUCGCCGUGAAGAGCAACACGGUAUUAGAGAAGGGACACGGG [Tixe] (puzzle: Exclusion 1) |  |  |  | 20.7 |  |  |
| CCUGCACAUGAGGAUCACCCAUGUCAGGAUAUCUCGCCGUGUGGAGCAACACGGUAUAAGAGAAGGGACACGGG [Gegexeusre] (puzzle: Exclusion 1) |  |  |  | 22.8 |  |  |
| CCUGCGGACAAAGGAUAUUGCGGUGGCCGGCUCGGCGUACCGAGCCUACAUGAGGAUCACCCAUGUAAGAAGGUUGUCGUUGGA [Mat - Exclusion NG 2 - Mod of JL - D71] (Eterna round: R96, puzzle: Exclusion NG 2) | 228 | 40.1 |  |  |  | 27 |
| CCUGGGUCAUCGCCCAGGAACAACAUGAGGAUCACCCAUGUCUAGGAUAUCCACCAGUCAAUAAAGGAGAAGGAGACGGUGGUU [Enusonor] (Eterna round: R96, puzzle: Exclusion NG 3) | 22.9 | 21.2 |  |  |  | 14.6 |
| CCUUACCGAGGAUAUACAUGAGGAUCACCCAUGUGAUCCUAAGGCUGAUCAAGCCUAUGUAGAAGGCGCAAAUC [salish99_ex3_r4_004] (Eterna round: R97, puzzle: Exclusion 3) | 160 | 130 |  |  |  |  |
| CCUUCCCGAGGAUAUACAUGAGGAUCACCCAUGUGAUCCUAAGGCUGAUCAAGCCUAUGUAGAAGGCGCAAAUC [salish99_ex3_r4_006] (Eterna round: R97, puzzle: Exclusion 3) | 35.1 | 38.4 |  |  |  |  |
| CCUUGUGUUGAGGAUAUGCGCCGGCUCGCUGGCGCAGAAGGCGGCACAUGAGGAUCACCCAUGUCAGUUCGCGA [salish99_ex6_r004_012] (Eterna round: R97, puzzle: Exclusion 6) | 336 | 29.2 |  |  |  |  |
| CGAUAAAAGACAGGAUAUGAGGAGAGAGAGAGAUCAGAAGGGUCACAUGAGGAUCACCCAUGUGAGUUCUCGAAAUUAAAUAUU [Prohibition 50 - Jieux - Exclusion NG 1] (Eterna round: R96, puzzle: Exclusion NG 1) | 18.8 | 18.8 |  |  |  | 14.2 |
| CGAUAAAAGACAGGAUAUGAGGAGAGAGAGAGAUCAGAAGGGUCACAUGAGGAUCACCCAUGUGAGUUCUCGAUAAGAAACACC [Prohibition 53 - Jieux - Exclusion NG 1] (Eterna round: R96, puzzle: Exclusion NG 1) | 13.8 | 19.3 |  |  |  | 14.5 |
| CGAUGCUCGAGUCGACAUGAGGAUCACCCAUGUACAGUUAGUGAGGAUAUCGGAGACACAUAGUAUGAGAAGGCGCGAACGUGA [Ex NG3 #16] (Eterna round: R96, puzzle: Exclusion NG 3) | 76.7 | 40.3 |  |  |  | 41.4 |
| CGCCCUCCGGUGAGGAUAUUGCCCACCAUGGUCGGCAAGAAGGCACUUGAGGAUCACCCAAGUAAAACAAAUAA [Beraus] (Eterna round: R97, puzzle: Brourd's mod of Exclusion 4) | 450 | 34.8 |  |  |  |  |
| CGCCUGUAAGGAUAUUAGUAGUAGUCAGAAUAGACUAUUACUGAGAAGGUACAUGAGGAUCACCCAUGUUGGCG [Eli x4 4.10] (Eterna round: R97, puzzle: Exclusion 4) | 19.7 | 18.5 |  |  |  |  |
